Measurements as given in the Immune Epitope Database (IEDB).

Tests used:
HLA-B*44:03 = assay: IEDB peptide-MHC binding, purified MHC/competitive/radioactivity; filed as Kd, often an IC50 or EC50 that approximates it; ≥ and ≤ were set here for values at or beyond the usual limits of such assays
HLA-B*44:02 = assay: as above
HLA-A*29:02 = assay: as above
HLA-B*40:01 = assay: as above
HLA-A*24:02 = assay: IEDB peptide-MHC binding, purified MHC/competitive/fluorescence; ≥ and ≤ were set here for values at or beyond the usual limits of such assays
HLA-A*02:01 = assay: as above
HLA-A*26:01 [1] = assay: IEDB peptide-MHC binding, purified MHC/direct/fluorescence; filed as Kd, often an IC50 or EC50 that approximates it; ≥ and ≤ were set here for values at or beyond the usual limits of such assays
HLA-A*30:01 = assay: IEDB peptide-MHC binding, purified MHC/competitive/radioactivity; filed as Kd, often an IC50 or EC50 that approximates it; ≥ and ≤ were set here for values at or beyond the usual limits of such assays
HLA-A*30:02 = assay: as above
HLA-A*01:01 = assay: as above
HLA-A*32:01 = assay: as above
HLA-B*15:01 [2] = assay: as above
HLA-B*08:01 = assay: as above
HLA-B*15:01 [3] = assay: IEDB peptide-MHC binding, purified MHC/competitive/fluorescence; filed as Kd, often an IC50 or EC50 that approximates it; ≥ and ≤ were set here for values at or beyond the usual limits of such assays
HLA-B*35:01 = assay: IEDB peptide-MHC binding, purified MHC/competitive/radioactivity; filed as Kd, often an IC50 or EC50 that approximates it; ≥ and ≤ were set here for values at or beyond the usual limits of such assays
HLA-A*26:01 [4] = assay: as above
HLA-B*46:01 = assay: IEDB peptide-MHC binding, purified MHC/competitive/fluorescence; filed as Kd, often an IC50 or EC50 that approximates it; ≥ and ≤ were set here for values at or beyond the usual limits of such assays; details: source organism: Entamoeba histolytica HM-1:IMSS
HLA-B*51:01 = assay: IEDB peptide-MHC binding, purified MHC/competitive/radioactivity; filed as Kd, often an IC50 or EC50 that approximates it; ≥ and ≤ were set here for values at or beyond the usual limits of such assays
[5] = source organism: Dengue virus 4 Philippines/H241/1956
[6] = source organism: Zaire ebolavirus
[7] = source organism: Vaccinia virus
[8] = source organism: Mammarenavirus juninense
[9] = source organism: Vaccinia virus WR
[10] = source organism: Dengue virus 2 Jamaica/1409/1983
[11] = source organism: Dengue virus 2 Peru/IQT2913/1996
[12] = source organism: Dengue virus 3 Martinique/1243/1999
[13] = source organism: Dengue virus 1 Brazil/97-11/1997
[14] = source organism: Mammarenavirus brazilense
[15] = source organism: Vaccinia virus Copenhagen
[16] = source organism: Dengue virus 3 Sri Lanka/1266/2000
[17] = source organism: Dengue virus 3 Singapore/8120/1995

Question: For AELLNIPFLY, which Kd (HLA-B*44:03; source organism: Homo sapiens) is on record?
Answer: 2.7 nM

Question: What about the Kd (HLA-B*44:02; source organism: Homo sapiens) of the same sequence?
Answer: 5 nM

Question: And the Kd (HLA-A*29:02; source organism: Homo sapiens)?
Answer: 108 nM

Question: Which Kd (HLA-B*40:01; [5]) does the source give for AETQHGTTV here?
Answer: 20.8 nM

Question: And the Kd (HLA-B*44:03; [5])?
Answer: 1460 nM

Question: For AKNISGQSP, which IC50 (HLA-A*24:02; [6]) is on record?
Answer: ≥ 552000 nM

Question: Which IC50 (HLA-A*24:02; [7]) does the source give for ATNLEYKTL here?
Answer: 43600 nM

Question: What about the IC50 (HLA-A*02:01; [7]) of the same sequence?
Answer: ≥ 85800 nM

Question: How did the Kd (HLA-A*26:01 [1]; source organism: Influenza A virus (A/chicken/Hebei/nj/2002(H9N2))) turn out when CVLEAMAFL was run?
Answer: ≥ 20000 nM

Question: ECLPAAPDG was tested. Which IC50 (HLA-A*24:02; [6]) did it give?
Answer: ≥ 394000 nM

Question: With EGIYIEGLM as the sequence, how does the IC50 (HLA-A*24:02; [6]) read?
Answer: ≥ 154000 nM

Question: How did the Kd (HLA-A*30:01; [8]) turn out when ELGNILSVY was run?
Answer: 11000 nM

Question: What about the Kd (HLA-A*30:02; [8]) of the same sequence?
Answer: 4.02 nM

Question: And the Kd (HLA-A*01:01; [8])?
Answer: 16500 nM

Question: And the Kd (HLA-A*32:01; [8])?
Answer: ≥ 77800 nM

Question: And the Kd (HLA-A*29:02; [8])?
Answer: 11000 nM

Question: And the Kd (HLA-A*26:01 [1]; [8])?
Answer: 16.5 nM

Question: Which results are given for ESKMSFLPI?
Answer: Kd (HLA-B*15:01 [2]; [9]): 358 nM; Kd (HLA-B*08:01; [9]): 1.06 nM

Question: FEKQLGQVM was tested. Which Kd (HLA-B*40:01; [10]) did it give?
Answer: 527 nM

Question: What about the Kd (HLA-B*44:02; [10]) of the same sequence?
Answer: 319 nM

Question: How did the Kd (HLA-B*15:01 [3]; source organism: Yersinia pestis Antiqua) turn out when FFQVIAKRY was run?
Answer: ≥ 20000 nM

Question: How did the IC50 (HLA-A*24:02; source organism: Sudan ebolavirus) turn out when FGAQHSTTL was run?
Answer: 60500 nM

Question: How did the Kd (HLA-B*15:01 [2]; [9]) turn out when FIFNIIMSF was run?
Answer: 399 nM

Question: Which results are given for FTMRHKKATY?
Answer: Kd (HLA-B*15:01 [2]; [11]): 138 nM; Kd (HLA-A*30:02; [11]): ≥ 43400 nM; Kd (HLA-A*01:01; [11]): 1260 nM

Question: With GMMDGWYGF as the sequence, how does the Kd (HLA-B*15:01 [3]; source organism: Influenza A virus (A/Queensland/11/2001(H3N2))) read?
Answer: 21.9 nM

Question: GPTPELEEEM was tested. Which Kd (HLA-B*35:01; [12]) did it give?
Answer: 4170 nM

Question: Which results are given for HVTRGAVLTY?
Answer: Kd (HLA-B*15:01 [2]; [12]): 94 nM; Kd (HLA-A*26:01 [4]; [12]): 114 nM

Question: Which Kd (HLA-B*46:01) does the source give for IAKGIDAEF here?
Answer: 168 nM

Question: With IDFLLQRWG as the sequence, how does the IC50 (HLA-A*24:02; [6]) read?
Answer: 68400 nM

Question: What about the IC50 (HLA-A*02:01; [6]) of the same sequence?
Answer: ≥ 134000 nM

Question: Which Kd (HLA-B*15:01 [2]; [9]) does the source give for IIIPFIAYF here?
Answer: 1.59 nM

Question: How did the IC50 (HLA-A*24:02; source organism: West Nile virus) turn out when IMSKDKPTI was run?
Answer: 1980 nM

Question: With IPEPDRQRTP as the sequence, how does the Kd (HLA-B*35:01; [13]) read?
Answer: 23.1 nM

Question: For IPLQWIASAI, which Kd (HLA-B*51:01; [12]) is on record?
Answer: 7.48 nM

Question: Which results are given for KEISNMLSI?
Answer: Kd (HLA-B*40:01; [12]): 6.44 nM; Kd (HLA-B*44:03; [12]): 21.8 nM; Kd (HLA-B*44:02; [12]): 28.2 nM; Kd (HLA-A*32:01; [12]): 6370 nM

Question: Which Kd (HLA-B*51:01; [13]) does the source give for KPWDVIPMV here?
Answer: 1110 nM

Question: KVKSCLCSF was tested. Which Kd (HLA-B*15:01 [2]; [9]) did it give?
Answer: 16.6 nM

Question: Which results are given for KVNACHHNY?
Answer: Kd (HLA-A*26:01 [4]; [14]): ≥ 77900 nM; Kd (HLA-A*30:01; [14]): 501 nM; Kd (HLA-A*30:02; [14]): 11.7 nM; Kd (HLA-A*01:01; [14]): 3840 nM; Kd (HLA-A*32:01; [14]): 445 nM; Kd (HLA-A*29:02; [14]): 115 nM

Question: Which Kd (HLA-B*15:01 [2]; [15]) does the source give for KVSCSMLEF here?
Answer: 0.84 nM

Question: KVSIYKTHI was tested. Which Kd (HLA-B*15:01 [2]; [9]) did it give?
Answer: 1460 nM

Question: Which Kd (HLA-B*35:01; [16]) does the source give for LAGPISQHNY here?
Answer: 187 nM

Question: And the Kd (HLA-A*30:02; [16])?
Answer: ≥ 60300 nM

Question: Which Kd (HLA-B*15:01 [2]; [9]) does the source give for LANFLCLLM here?
Answer: 1310 nM

Question: What does the source list for LATLRKLCI?
Answer: Kd (HLA-B*08:01; [12]): 359 nM; Kd (HLA-B*51:01; [12]): 2530 nM

Question: Which Kd (HLA-B*51:01; [10]) does the source give for LAVWNRVWI here?
Answer: 4950 nM

Question: For LECSPRTGL, which Kd (HLA-B*40:01; [12]) is on record?
Answer: 599 nM

Question: How did the Kd (HLA-B*40:01; [17]) turn out when LEKASFIEV was run?
Answer: 1040 nM

Question: What about the Kd (HLA-B*44:02; [17]) of the same sequence?
Answer: 9570 nM

Question: Which Kd (HLA-B*15:01 [2]; [15]) does the source give for LILSCIFAF here?
Answer: 543 nM

Question: And the Kd (HLA-A*32:01; [15])?
Answer: 427 nM

Question: With LIVMDEAHF as the sequence, how does the Kd (HLA-B*15:01 [2]; [5]) read?
Answer: 30.9 nM

Question: What does the source list for LIWKVNPEI?
Answer: IC50 (HLA-A*24:02; [6]): 1310 nM; IC50 (HLA-A*02:01; [6]): 426 nM
